Patent publication US20210179686A1, “CELL SORTING SYSTEMS AND METHODS OF USE” (MEMORIAL SLOAN-KETTERING CANCER CENTER, priority 2018, published 2021)

Test system: soluble CD28-Fc
Assay: binding of soluble CD28-Fc by CD80 functionalized leucine zipper T cells
Settings: FIG. 21B
Description: CD80 (B7-1) molecule functionalized to present blocked capture leucine zipper, permitting magnetic sorting with FLAG-RR12EE345L leucine zipper. T cells were transduced with vectors encoding (a) FLAG-RR12EE345L iCaspase9 CD19-myc-CAR and (b) RR12EE345L linker EE12RR345L CD80 CD20-streptag-CAR. Next, cells were magnetically sorted with anti-FLAG magnetic beads.

B1: RR12EE345L linker EE12RR345L CD80: CD80 (B7-1) functionalized to present blocked capture leucine zipper, SEQ ID NO: 142 (protein)
chain: METDTLLLWVLLLWVPGSTGLEIRAAFLRQRNTALRTEVAELEQEVQRLENEVSQYETRYGPLGGGKGGGGSGGGGSGGGGSGGGSLEIEAAFLERENTALETRVAELRQRVQRLRNRVSQYRTRYGPLGGGKEFTGSTSGSGKPGSGEGSTKGVDEQLSKSVKDKVLLPCRYNSPHEDESEDRIYWQKHDKVVLSVIAGKLKVWPEYKNRTLYDNTTYSLIILGLVLSDRGTYSCVVQKKERGTYEVKHLALVKLSIKADFSTPNITESGNPSADTKRITCFASGGFPKPRFSWLENGRELPGINTTISQDPESELYTISSQLDFNTTRNHTIKCLIKYGDAHVSEDFTWEKPPEDPPDSKNTLVLFGAGFGAVITVVVIVVIIKCFCKHRSCFRRNEASRETNNSLTFGPEEALAEQTVFL
For B1, the “binding to soluble CD28-Fc” value was “bound to soluble CD28-Fc”.
